Earlier results on two substances are cited in patent publication US20220259272A1, “PHOTOACTIVE COMPOSITIONS FOR T[…] DELIVERY” (The University of North Carolina at Chapel Hill, priority 2019, published 2022).

For data set [1] the following is noted: 1 mg/kg, up to 100 mg.
The conditions of data set [2]: in vivo.
The conditions of data set [3]: in vivo. The source holds these as a separate data set.

Regarding “tPA: enzyme that activates plasminogen to generate plasmin, which dissolves the clot”, the “catastrophic intracerebral hemorrhage, share of patients” value in data set [1] is reported as around 10%. The circulatory lifetime in data set [2] is reported as 5 min.
“TF: protein that promotes blood clotting in the cascade activating thrombin”: the circulatory half-life in data set [3] is reported as below 1 min.
